Changes are numbered by the printed parent chain.
B1: DVD3233 (bispecific antibody, IgG1)
VH: EVQLVQSGAEVKKPGASVKVSCKASGYTFNNYGIIWVRQAPGQGLEWMGWINTYTGKPTYAQKFQGRVTMTTDTSTSTAYMELSSLRSEDTAVYYCARKLFNTVAVTDNAMDYWGQGTTVTVSSGGGGSGGGGSEVQLVESGGGLVQPGGSLRLSCAASGFSFSKYWLGWVRQAPGKGLEWVSDIYPGYDYTHYNEKFKDRFTISADTSKNTAYLQMNSLRAEDTAVYYCARSDGSSTYWGQGTLVTVSS
VL: DIQMTQSPSSLSASVGDRVTITCRASQDIENYLNWYQQKPGKAPKLLIYYTSRLQSGVPSRFSGSGSGTDFTLTISSLQPEDFATYFCQQGNTQPPTFGQGTKLEIKRGGSGGGGSGDIQMTQSPSSLSASVGDRVTITCTSSQNIVHSNGNTYLEWYQQKPGKAPKLLIYKVSNRFSGVPSRFSGSGSGTDFTLTISSLQPEDFATYYCFQVSHVPYTFGQGTKVEIKR
B2: DVD3229 (bispecific antibody, IgG1)
VH: EVQLVESGGGLVQPGGSLRLSCAASGFSFSKYWLGWVRQAPGKGLEWVSDIYPGYDYTHYNEKFKDRFTISADTSKNTAYLQMNSLRAEDTAVYYCARSDGSSTYWGQGTLVTVSSASTKGPEVQLVQSGAEVKKPGASVKVSCKASGYTFANYGIIWVRQAPGQGLEWMGWINTYTGKPTYAQKFQGRVTMTTDTSTSTAYMELSSLRSEDTAVYYCARKLFTTMDVTDNAMDYWGQGTTVTVSS
VL: DIQMTQSPSSLSASVGDRVTITCTSSQNIVHSNGNTYLEWYQQKPGKAPKLLIYKVSNRFSGVPSRFSGSGSGTDFTLTISSLQPEDFATYYCFQVSHVPYTFGQGTKVEIKRTVAAPDIQMTQSPSSLSASVGDRVTITCRASQDISQYLNWYQQKPGKAPKLLIYYTSRLQSGVPSRFSGSGSGTDFTLTISSLQPEDFATYFCQQGNTWPPTFGQGTKLEIKR
B3: DVD3231 (bispecific antibody, IgG1)
VH: B2 VH
VL: DIQMTQSPSSLSASVGDRVTITCTSSQNIVHSNGNTYLEWYQQKPGKAPKLLIYKVSNRFSGVPSRFSGSGSGTDFTLTISSLQPEDFATYYCFQVSHVPYTFGQGTKVEIKRTVAAPSVFIFPPDIQMTQSPSSLSASVGDRVTITCRASQDISQYLNWYQQKPGKAPKLLIYYTSRLQSGVPSRFSGSGSGTDFTLTISSLQPEDFATYFCQQGNTWPPTFGQGTKLEIKR
B4: DVD3232 (bispecific antibody, IgG1)
VH: EVQLVESGGGLVQPGGSLRLSCAASGFSFSKYWLGWVRQAPGKGLEWVSDIYPGYDYTHYNEKFKDRFTISADTSKNTAYLQMNSLRAEDTAVYYCARSDGSSTYWGQGTLVTVSSASTKGPSVFPLAPEVQLVQSGAEVKKPGASVKVSCKASGYTFANYGIIWVRQAPGQGLEWMGWINTYTGKPTYAQKFQGRVTMTTDTSTSTAYMELSSLRSEDTAVYYCARKLFTTMDVTDNAMDYWGQGTTVTVSS
VL: B2 VL
B5: DVD3234 (bispecific antibody, IgG1)
VH: EVQLVQSGAEVKKPGASVKVSCKASGYTFNNYGIIWVRQAPGQGLEWMGWINTYTGKPTYAQKFQGRVTMTTDTSTSTAYMELSSLRSEDTAVYYCARKLFNTVAVTDNAMDYWGQGTTVTVSSASTKGPEVQLVESGGGLVQPGGSLRLSCAASGFSFSKYWLGWVRQAPGKGLEWVSDIYPGYDYTHYNEKFKDRFTISADTSKNTAYLQMNSLRAEDTAVYYCARSDGSSTYWGQGTLVTVSS
VL: DIQMTQSPSSLSASVGDRVTITCRASQDIENYLNWYQQKPGKAPKLLIYYTSRLQSGVPSRFSGSGSGTDFTLTISSLQPEDFATYFCQQGNTQPPTFGQGTKLEIKRTVAAPDIQMTQSPSSLSASVGDRVTITCTSSQNIVHSNGNTYLEWYQQKPGKAPKLLIYKVSNRFSGVPSRFSGSGSGTDFTLTISSLQPEDFATYYCFQVSHVPYTFGQGTKVEIKR
B6: DVD3237 (bispecific antibody, IgG1)
VH: EVQLVQSGAEVKKPGASVKVSCKASGYTFNNYGIIWVRQAPGQGLEWMGWINTYTGKPTYAQKFQGRVTMTTDTSTSTAYMELSSLRSEDTAVYYCARKLFNTVAVTDNAMDYWGQGTTVTVSSASTKGPSVFPLAPEVQLVESGGGLVQPGGSLRLSCAASGFSFSKYWLGWVRQAPGKGLEWVSDIYPGYDYTHYNEKFKDRFTISADTSKNTAYLQMNSLRAEDTAVYYCARSDGSSTYWGQGTLVTVSS
VL: B5 VL
B7: DVD3236 (bispecific antibody, IgG1)
VH: B5 VH
VL: DIQMTQSPSSLSASVGDRVTITCRASQDIENYLNWYQQKPGKAPKLLIYYTSRLQSGVPSRFSGSGSGTDFTLTISSLQPEDFATYFCQQGNTQPPTFGQGTKLEIKRTVAAPSVFIFPPDIQMTQSPSSLSASVGDRVTITCTSSQNIVHSNGNTYLEWYQQKPGKAPKLLIYKVSNRFSGVPSRFSGSGSGTDFTLTISSLQPEDFATYYCFQVSHVPYTFGQGTKVEIKR
B8: DVD3228 (bispecific antibody, IgG1)
VH: EVQLVESGGGLVQPGGSLRLSCAASGFSFSKYWLGWVRQAPGKGLEWVSDIYPGYDYTHYNEKFKDRFTISADTSKNTAYLQMNSLRAEDTAVYYCARSDGSSTYWGQGTLVTVSSGGGGSGGGGSEVQLVQSGAEVKKPGASVKVSCKASGYTFANYGIIWVRQAPGQGLEWMGWINTYTGKPTYAQKFQGRVTMTTDTSTSTAYMELSSLRSEDTAVYYCARKLFTTMDVTDNAMDYWGQGTTVTVSS
VL: DIQMTQSPSSLSASVGDRVTITCTSSQNIVHSNGNTYLEWYQQKPGKAPKLLIYKVSNRFSGVPSRFSGSGSGTDFTLTISSLQPEDFATYYCFQVSHVPYTFGQGTKVEIKRGGSGGGGSGDIQMTQSPSSLSASVGDRVTITCRASQDISQYLNWYQQKPGKAPKLLIYYTSRLQSGVPSRFSGSGSGTDFTLTISSLQPEDFATYFCQQGNTWPPTFGQGTKLEIKR
B9: DVD3238 (bispecific antibody, IgG1)
VH: B8 VH with A156N, T228N, M230V, D231A
VL: B8 VL with S152E, Q153N, W216Q

Molecular target: Recombinant Human TNF-α/TNFSF1A (human, UniProt P01375 77-233)
Test: cell-based or functional assay

Recombinant Human TNF-α/TNFSF1A, sequence (P01375 77-233 limits assumed): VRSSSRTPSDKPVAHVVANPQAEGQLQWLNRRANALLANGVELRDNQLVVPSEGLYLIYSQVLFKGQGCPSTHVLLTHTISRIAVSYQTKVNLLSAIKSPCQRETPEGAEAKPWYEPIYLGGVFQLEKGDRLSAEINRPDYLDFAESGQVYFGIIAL

Binder	N-Terminal VD huTNFα Neutralization Assay IC50 [nM]	C-Terminal VD huTNFα Neutralization Assay IC50 [nM]
B1	0.005	–
B2	–	0.086
B3	–	0.112
B4	–	0.254
B5	0.009	–
B6	0.01	–
B7	0.006	–
B8	–	0.052
B9	–	0.168

Source: US20140271457A1 (AbbVie / Abbott, published 2014)
